Target: high molecular weight kininogen (single-chain) (UniProt P01042 19-644)
Experiment: microtiter plate binding assay (streptavidin-peroxidase); Proteins coated at 10 ug/mL in 100 mM sodium carbonate pH 9.5 (4 C, 20 h); blocked with TBS + 3% BSA; biotinylated DNA 0.31-50 ug/mL, 22 C, 2 h; TBS washes; binding buffer composition and pH not stated
Settings: protein: commercial; hairpin, blunt-ended

Sequence of high molecular weight kininogen (single-chain) (P01042 19-644): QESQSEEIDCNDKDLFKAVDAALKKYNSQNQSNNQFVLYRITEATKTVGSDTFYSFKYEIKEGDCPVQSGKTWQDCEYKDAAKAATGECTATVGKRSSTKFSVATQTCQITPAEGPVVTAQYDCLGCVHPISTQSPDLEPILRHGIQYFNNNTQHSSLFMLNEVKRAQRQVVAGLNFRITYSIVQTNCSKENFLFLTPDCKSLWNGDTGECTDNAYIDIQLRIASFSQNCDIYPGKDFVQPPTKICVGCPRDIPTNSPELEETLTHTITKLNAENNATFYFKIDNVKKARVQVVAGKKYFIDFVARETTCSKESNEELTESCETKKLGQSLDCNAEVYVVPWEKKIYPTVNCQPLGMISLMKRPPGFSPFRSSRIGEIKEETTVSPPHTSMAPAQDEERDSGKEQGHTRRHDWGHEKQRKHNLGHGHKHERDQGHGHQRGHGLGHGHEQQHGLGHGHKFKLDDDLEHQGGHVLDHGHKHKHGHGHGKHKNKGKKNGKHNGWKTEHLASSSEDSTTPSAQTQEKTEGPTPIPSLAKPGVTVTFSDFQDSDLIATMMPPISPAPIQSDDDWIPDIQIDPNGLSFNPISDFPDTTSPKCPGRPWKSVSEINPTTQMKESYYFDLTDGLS

B1: 21mer-H1 DNA (structured_DNA)
DNA: GGGAATGGGTATTCCCATCCC
B1 showed a Kd of 1820 ± 230 nM.

Reference: PMC3511531, “Structural Requirements for the Procoagulant Activity of Nucleic Acids”
